Data on 16 molecules can be found in patent publication JP2016028048A (dated 2016).

This test has as its target T1, ヒト組織因子経路インヒビター (human TFPI) (human, UniProt P10646 29-304, limits assumed).
T1 construct: Coated on Maxisorp plates (ELISA) or amine-coupled to a CM5 chip (Biacore); also called ヒトTFPI; hTFPI
T1 sequence (looked up): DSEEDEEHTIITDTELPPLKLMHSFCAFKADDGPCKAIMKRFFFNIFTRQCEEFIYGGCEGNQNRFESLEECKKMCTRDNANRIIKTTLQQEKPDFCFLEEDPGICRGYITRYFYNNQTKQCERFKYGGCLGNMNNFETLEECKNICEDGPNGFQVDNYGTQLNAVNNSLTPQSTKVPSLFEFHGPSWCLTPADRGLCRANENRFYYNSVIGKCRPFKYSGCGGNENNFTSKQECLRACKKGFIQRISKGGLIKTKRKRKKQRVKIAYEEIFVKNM
As to the kind of experiment: ELISA, Fab in bacterial lysate on human TFPI-coated plate.

Residue numbers refer to the chain shown, from its start.

B1: TP-3C2 (Fab, V domains shown)
VH: QVQLQQSGPGLVKPSQTLSLTCAISGDSVSSSSAAWSWIRQSPGRGLEWLGMIYYRSKWYNHYAVSVKSRITINPDTSKNQFSLQLNSVTPEDTAVYYCARGGSGVMDVWGQGTLVTVSS
VL: DIQMTQSPSSLSASVGDRVTITCRASQSITNYLNWYQQKPGKAPKLLIYDVSNLQSGVPSRFSGSGSGTDFTLTISSLQPEDFAVYYCQQYSGYPLTFGQGTKVEIKR
notes: Human Fab (HuCal Gold), made in E. coli TG1
With B1, the binding result is recorded as “binds”.

B2: TP-3C3 (Fab, V domains shown)
VH: QVQLQQSGPGLVKPSQTLSLTCAISGDSVSSNSAAWGWIRQSPGRGLEWLGVIYYRSKWYNDYAVSVKSRITINPDTSKNQFSLQLNSVTPEDTAVYYCARARAKKSGGFDYWGQGTLVTVSS
VL: B1 VL with T30N, N31P, D50A, V51A, Y91L, S92D, G93N, Y94R, P95S, L96I
notes: as for B1
B2: the binding result was “binds”.

B3: TP-3F1 (Fab, V domains shown)
VH: QVQLVQSGAEVKKPGESLKISCKGSGYSFTDYWIGWVRQMPGKGLEWMGIIQPSDSDTNYSPSFQGQVTISADKSISTAYLQWSSLKASDTAMYYCARFMWWGKYDSGFDVWGQGTLVTVSS
VL: DIELTQPPSVSVAPGQTARISCSGDNIGSYFASWYQQKPGQAPVLVIYDDSNRPSGIPERFSGSNSGNTATLTISGTQAEDEADYYCEGSNVFGGGTKLTVLG
notes: as for B1
Turning to B3, the binding result was “binds”.

B4: TP-3A2 (Fab, V domains shown)
VH: QVQLVESGGGLVQPGGSLRLSCAASGFTFSNYYLSWVRQAPGKGLEWVSGISYNGSSTNYADSVKGRFTISRDNSKNTLYLQMNSLRAEDTAVYYCARMWRYSLGADSWGQGTLVTVSS
VL: DIELTQPPSVSVAPGQTARISCSGDNIGSRYAYWYQQKPGQAPVVVIYDDSDRPSGIPERFSGSNSGNTATLTISGTQAEDEADYYCAAYTFYARTVFGGGTKLTVLG
notes: as for B1
Turning to B4, the binding result is “binds”.

B5: TP-2G5 (Fab, V domains shown)
VH: QVQLQQSGPGLVKPSQTLSLTCAISGDSVSSNSAAWSWIRQSPGRGLEWLGFIYYRSKWYNDYAVSVKSRITINPDTSKNQFSLQLNSVTPEDTAVYYCARHNPDLGFDYWGQGTLVTVSS
VL: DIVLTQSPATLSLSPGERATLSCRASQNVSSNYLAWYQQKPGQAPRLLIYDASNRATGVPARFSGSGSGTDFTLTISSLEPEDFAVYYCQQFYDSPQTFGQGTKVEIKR
notes: as for B1
Turning to B5, the binding result is reported as “binds”.

B6: TP-3A3 (Fab, V domains shown)
VH: QVQLVESGGGLVQPGGSLRLSCAASGFTFNNNAISWVRQAPGKGLEWVSAINSSSSSTSYADSVKGRFTISRDNSKNTLYLQMNSLRAEDTAVYYCARGHHRGHSWASFIDYWGQGTLVTVSS
VL: DIELTQPPSVSVAPGQTARISCSGDNIGSKYVHWYQQKPGQAPVVVIYEDSDRPSGIPERFSGSNSGNTATLTISGTQAEDEADYYCQSWDKSEGYVFGGGTKLTVLG
notes: as for B1
Take B6: the binding result was “binds”.

B7: TP-2A5.1 (Fab, V domains shown)
VH: QVQLVESGGGLVQPGGSLRLSCAASGFTFSSYGSWVRQAPGKGLEWVSVISGSGSSTYYADSVKGRFTISRDNSKNTLYLQMNSLRAEDTAVYYCARVNISTHFDVWGQGTLVTVSS
VL: DIELTQPPSVSVAPGQTARISCSGDNIPEKYVHWYQQKPGQAPVLVIHGDNNRPSGIPERFSGSNSGNTATLTISGTQAEDEADYYCQSFDAGSYFVFGGGTKLTVLG
notes: as for B1
As to B7, the binding result is given as “binds”.

B8: TP-2G7 (Fab, V domains shown)
VH: QVQLVESGGGLVQPGGSLRLSCAASGFTFNSYAMSWVRQAPGKGLEWVSNISSNSSNTYYADSVKGRFTISRDNSKNTLYLQMNSLRAEDTAVYYCARKGGGEHGFFPSDIWGQGTLVTVSS
VL: DIELTQPPSVSVAPGQTARISCSGDNLGTYYVHWYQQKPGQAPVLVIYGDNNRPSGIPERFSGSNSGNTATLTISGTQAEDEADYYCQTYDSNNESIVFGGGTKLTVLG
notes: as for B1
As for B8, the binding result was “binds”.

B9: TP-2G9 (Fab, V domains shown)
VH: QVQLVESGGGLVQPGGSLRLSCAASGFTFNSYAMTWVRQAPGKGLEWVSAIKSDGSNTYYADSVKGRFTISRDNSKNTLYLQMNSLRAEDTAVYYCARNDSGWFDVWGQGTLVTVSS
VL: DIALTQPASVSGSPGQSITISCTGTSSDLGGFNTVSWYQQHPGKAPKLMIYSVSSRPSGVSNRFSGSKSGNTASLTISGLQAEDEADYYCQSYDLNNLVFGGGTKLTVLG
notes: as for B1
Regarding B9, the binding result is reported as “binds”.

B10: TP-3C1 (Fab, V domains shown)
VH: QVQLVESGGGLVQPGGSLRLSCAASGFTFSSYSMHWVRQAPGKGLEWVSGISYSSSFTYYADSVKGRFTISRDNSKNTLYLQMNSLRAEDTAVYYCARALGGGVDYWGQGTLVTVSS
VL: B9 VL
notes: Human Fab (HuCal Gold), made in E. coli TG1; VL is the same entry as TP-2G9, VH the same entry as TP-3F2 (so in the source)
In the case of B10, the binding result was “binds”.

B11: TP-2A6 (Fab, V domains shown)
VH: QVQLVESGGGLVQPGGSLRLSCAASGFTFSRYAMSWVRQAPGKGLEWVSSIISSSSETYYADSVKGRFTISRDNSKNTLYLQMNSLRAEDTAVYYCARLMGYGHYYPFDYWGQGTLVTVSS
VL: DIELTQPPSVSVAPGQTARISCSGDKIGSKYVYWYQQKPGQAPVLVIYDSNRPSGIPERFSGSNSGNTATLTISGTQAEDEADYYCASYDSIYSYWVFGGGTKLTVLG
notes: as for B1
For B11, the binding result is reported as “binds”.

B12: TP-3E1 (Fab, V domains shown)
VH: QVQLVESGGGLVQPGGSLRLSCAASGFTFSNYAMTWVRQAPGKGLEWVSVISSVGSNTYYADSVKGRFTISRDNSKNTLYLQMNSLRAEDTAVYYCARPTKAGRTWWWGPYMDVWGQGTLVTVSS
VL: DIELTQPPSVSVAPGQTARISCSGDNIGSYYAYWYQQKPGQAPVLVIYDDSNRPSGIPERFSGSNSGNTATLTISGTQAEDEADYYCQSYDSTGLLVFGGGTKLTVLG
notes: as for B1
Take B12: the binding result is reported as “binds”.

B13: TP-3D3 (Fab, V domains shown)
VH: QVQLVESGGGLVQPGGSLRLSCAASGFTFSSYASWVRQAPGKGLEWVSGISGDGSNTHYADSVKGRFTISRDNSKNTLYLQMNSLRAEDTAVYYCARYDNFYFDVWGQGTLVTVSS
VL: DIELTQPPSVSVAPGQTARISCSGDSLGSKFAHWYQQKPGQAPVLVIYDDSNRPSGIPERFSGSNSGNTATLTISGTQAEDEADYYCSTYTSRSHSYVFGGGTKLTVLG
notes: as for B1
On to B13, for which the binding result was “binds”.

B14: TP-3B3 (Fab, V domains shown)
VH: QVQLVESGGGLVQPGGSLRLSCAASGFTFSSYGMHWVRQAPGKGLEWVSNISYMGSNTNYADSVKGRFTISRDNSKNTLYLQMNSLRAEDTAVYYCARGLFPGYFDYWGQGTLVTVSS
VL: DIELTQPASVSVAPGQTARISCSGDNLRSKYAHWYQQKPGQAPVLVIYGDNNRPSGIPERFSGSNSGNTATLTISGTQAEDEADYYCSAYAMGSSPVFGGGTKLTVLG
notes: as for B1
B14: the binding result was “binds”.

B15: TP-3A4 (Fab, V domains shown)
VH: QVQLVESGGGLVQPGGSLRLSCAASGFTFSSYWMHWVRQAPGKGLEWVSSISYDSSNTYYADSVKGRFTISRDNSKNTLYLQMNSLRAEDTAVYYCARYGGMDYWGQGTLVTVSS
VL: DIELTQPPSVSVAPGQTARISCSGDNLRDKYASWYQQKPGQAPVLVIYSKSERPSGIPERFSGSNSGNTATLTISGTQAEDEADYYCSSYTLNPNLNYVFGGGTKLTVLG
notes: as for B1
As for B15, the binding result is “binds”.

B16: TP-2H10 (Fab, V domains shown)
VH: QVQLQQSGPGLVKPSQTLSLTCAISGDSVSSNGAAWGWIRQSPGRGLEWLGFIYRRSKWYNSYAVSVKSRITINPDTSKNQFSLQLNSVTPEDTAVYYCARQDGMGGMDSWGQGTLVTVSS
VL: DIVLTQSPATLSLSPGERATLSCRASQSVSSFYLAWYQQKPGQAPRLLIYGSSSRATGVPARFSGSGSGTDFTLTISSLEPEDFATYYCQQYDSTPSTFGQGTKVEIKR
notes: as for B1
Take B16: the binding result is “binds”.
